The results in this text go back to PMC6030874.

The target in the test is EGFP-MeCP2 R306C (mouse).

With “NCoR1 (from UniProt O75376 1-2440) (natural protein)”, the methylation-dependent transcriptional repression of a luciferase reporter (untagged MeCP2 e1 in Mecp2-/y, Mbd2-/- mouse tail fibroblasts), relative to WT MeCP2 was 25 % of WT.
